Molecular target: Drosophila melanogaster TRPA1, dTRPA1-A isoform (Drosophila melanogaster)
Test: cryo-EM structure; purified dTRPA1-A in 25 mM HEPES pH 7.4, 150 mM NaCl, 0.02% GDN; grids prepared at 8 °C; two conformations (state-1, 3.2 Å; state-2, 3.0 Å) from the same sample

- stoichiometry N: 4
Substance: Drosophila melanogaster TRPA1, dTRPA1-A isoform (natural protein)

Source: publication PMC10073219
